Our source for the binding signal values is patent publication US20160046944, “APTAMER TO IL-17 AND USE THEREOF” (THE UNIVERSITY OF TOKYO, published 2016).

To fix the notation:
B1: aptamer No. 27 (mixed)
mixed: GGGUAGCCGGAGGAGTCAGTAAUCGGTACCC
modifications: 2'-OMe (M), 2'-F (F), PS (S) as marked; uppercase DNA [2'-OMe: 1,2,3,4,7,8,10,13,14,21,23,24,25,26,28,29,30,31; 2'-F: 17; PS: 6]
B2: aptamer No. 32 (mixed)
mixed: GGGUAGCCGGAGGAGTCAGTAAUCGGTACCC
modifications: 2'-OMe (M), 2'-F (F) as marked; uppercase DNA [2'-OMe: 1,2,3,4,7,8,10,13,14,21,22,23,24,25,26; 2'-F: 17]
B3: aptamer No. 29 (mixed)
mixed: GGGUAGCCGGAGGAGTCAGTAAUCGGTACCC
modifications: 2'-OMe (M), 2'-F (F) as marked; uppercase DNA [2'-OMe: 1,2,3,4,7,8,10,13,14,21,22,23,24,25,26,28,29,30,31; 2'-F: 17]
B4: aptamer No. 31 (mixed)
mixed: GGGUAGCCGGAGGAGTCAGTAAUCGGTACCC
modifications: 2'-OMe (M), 2'-F (F), PS (S) as marked; uppercase DNA [2'-OMe: 1,2,3,4,7,8,10,13,14,23,24,25,26,29,30,31; 2'-F: 17; PS: 6]
B5: aptamer No. 28 (mixed)
mixed: GGGUAGCCGGAGGAGTCAGTAAUCGGTACCC
modifications: 2'-OMe (M), 2'-F (F) as marked; uppercase DNA [2'-OMe: 1,2,3,4,7,8,10,13,14,23,24,25,26,28,29,30,31; 2'-F: 17]
B6: aptamer No. 86 (mixed)
mixed: GGGUAGCCGGAGGAGTCAGTGAUCGGUACCC
modifications: 2'-OMe (M), 2'-F (F), PS (S) as marked; uppercase DNA [2'-OMe: 1-5,7,8,10,11,13,14,17,21-31; 2'-F: 18; PS: 6,15,19; DNA: 9,16,20]
B7: aptamer No. 89 (mixed)
mixed: GGGUAGCCGGAGGAGTCAGTAAUCGGUACCC
modifications: 2'-OMe (M), 2'-F (F), PS (S) as marked; uppercase DNA [2'-OMe: 1-5,7,8,10,11,13,14,17,22-31; 2'-F: 18; PS: 6,15,19; DNA: 9,16,20]
B8: aptamer No. 53 (mixed)
mixed: GGGUAGCCGGAGGAGTCAGTAAUCGGUACCC
modifications: 2'-OMe (M), 2'-F (F), PS (S) as marked; uppercase DNA [2'-OMe: 1,2,3,4,7,8,10,13,14,21,22,23,24,25,26,28; 2'-F: 11,17,18,27; PS: 6,19]
B9: aptamer No. 77 (mixed)
RNA: GGGUAGCCGGAGGAGUCAGUAAUCGGUACCC
modifications: 2'-OMe (M), 2'-F (F) as marked; uppercase DNA [2'-OMe: 1-5,7,8,10,13,14,21-26,29-31; 2'-F: 11,16,17,18,20,27; DNA: 28]
B10: aptamer No. 94 (mixed)
RNA: GGGUAGCCGGAGGAGUCAGUAAUCGGUACCC
modifications: 2'-OMe (M), 2'-F (F), PS (S) as marked; uppercase DNA [2'-OMe: 1-5,7,8,10,11,13,14,23-26,28-31; 2'-F: 16-18,20,27; PS: 6,15,19; DNA: 9]
B11: aptamer No. 80 (mixed)
RNA: GGGUAGCCGGAGGAGUCAGUAAUCGGUACCC
modifications: 2'-OMe (M), 2'-F (F), PS (S) as marked; uppercase DNA [2'-OMe: 1-5,7,8,10,13,14,21-26,29-31; 2'-F: 11,16,17,18,20,27; PS: 6; DNA: 9,28]
B12: aptamer No. 62 (mixed)
mixed: GGGUAGCCGGAGGAGTCAGTAAUCGGUACCC
modifications: 2'-OMe (M), 2'-F (F), PS (S) as marked; uppercase DNA [2'-OMe: 1,2,3,4,5,7,8,10,13,14,21,22,23,24,25,26,28,29,30,31; 2'-F: 11,17,18,27; PS: 6]
B13: aptamer No. 70 (mixed)
RNA: GGGUAGCCGGAGGAGUCAGUAAUCGGUACCC
modifications: 2'-OMe (M), 2'-F (F), PS (S) as marked; uppercase DNA [2'-OMe: 1-5,7,8,10,13,14,21-26,28-31; 2'-F: 11,16,17,18,20,27; PS: 6,15,19]
B14: aptamer No. 75 (mixed)
mixed: GGGUAGCCGGAGGAGTCAGTAAUCGGUACCC
modifications: 2'-OMe (M), 2'-F (F) as marked; uppercase DNA [2'-OMe: 1-5,7,8,10,13,14,21-26,28-31; 2'-F: 11,17,18,27]
B15: aptamer No. 91 (mixed)
mixed: GGGUAGCCGGAGGAGTCAGTAAUCGGUACCC
modifications: 2'-OMe (M), 2'-F (F), PS (S) as marked; uppercase DNA [2'-OMe: 1-5,7,8,10,11,13,14,17,23-31; 2'-F: 18; PS: 6,15,19; DNA: 9,16,20]
B16: aptamer No. 93 (mixed)
RNA: GGGUAGCCGGAGGAGUCAGUAAUCGGUACCC
modifications: 2'-OMe (M), 2'-F (F), PS (S) as marked; uppercase DNA [2'-OMe: 1-5,7,8,10,11,13,14,21,23-26,28-31; 2'-F: 16-18,20,27; PS: 6,15,19; DNA: 9]
B17: aptamer No. 72 (mixed)
RNA: GGGUAGCCGGAGGAGUCAGUAAUCGGUACCC
modifications: 2'-OMe (M), 2'-F (F), PS (S) as marked; uppercase DNA [2'-OMe: 1-5,7,8,10,13,14,21-31; 2'-F: 11,16,17,18,20; PS: 6]
B18: aptamer No. 60 (mixed)
mixed: GGGUAGCCGGAGGAGTCAGTAAUCGGUACCC
modifications: 2'-OMe (M), 2'-F (F), PS (S) as marked; uppercase DNA [2'-OMe: 1,2,3,4,5,7,8,10,13,14,19,21,22,23,24,25,26,28,29,30,31; 2'-F: 11,17,18,27; PS: 6,15]
B19: aptamer No. 83 (mixed)
RNA: GGGUAGCCGGAGGAGUCAGUAAUCGGUACCC
modifications: 2'-OMe (M), 2'-F (F), PS (S) as marked; uppercase DNA [2'-OMe: 1-5,7,8,10,11,13,14,17,21-26,28-31; 2'-F: 16,18,20,27; PS: 6,15,19; DNA: 9]
B20: aptamer No. 73 (mixed)
RNA: GGGUAGCCGGAGGAGUCAGUAAUCGGUACCC
modifications: 2'-OMe (M), 2'-F (F), PS (S) as marked; uppercase DNA [2'-OMe: 1-5,7,8,10,13,14,21-31; 2'-F: 11,16,17,18,20; PS: 6,15,19]

One data set concerns the target T1, IL-17 (Homo sapiens, UniProt Q16552 Q16552:24-155).
T1 sequence: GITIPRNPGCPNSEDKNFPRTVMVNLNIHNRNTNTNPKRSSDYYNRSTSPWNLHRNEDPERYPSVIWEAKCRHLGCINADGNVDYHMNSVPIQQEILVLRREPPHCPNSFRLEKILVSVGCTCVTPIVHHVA
Put plainly: SPR; IL-17R-Fc on chip. The following applies: chain copies: 2. As for the experimental part:
Whether aptamers shown by aptamer Nos. 1-49 inhibit the binding of IL-17 and IL-17 receptor was evaluated by the surface plasmon resonance method.
For the measurement, BIAcore2000 manufactured by BIAcore was used. […] As an analyte, IL-17 (100 or 150 nM) and an aptamer (50 or 100 nM) shown by aptamer No. 1-49 were mixed, maintained for 15 min and after that the mixture was flown.
In general terms: In SPR one partner is held on a chip, and binding of the other changes the refractive index at the surface.
Consider B1, for which the binding signal was 13.3 % IL-17/IL-17R binding remaining.
On the same count and under the same terms, with B2 the figure was 13.2 % IL-17/IL-17R binding remaining; with B3, 13.3 % IL-17/IL-17R binding remaining.
Still for that read-out and setting: under B4 stands 16.2 % IL-17/IL-17R binding remaining.
Take B5: the binding signal was 13.2 % IL-17/IL-17R binding remaining.

The next data set addresses T1, IL-17. The experiment in a line: SPR; IL-17 150 nM, aptamer 12.5 or 50 nM. The settings on record: chain copies: 2. Here is the method:
Whether the synthesized aptamers inhibit the binding of IL-17 and IL-17 receptor was evaluated by the surface plasmon resonance method.
For the measurement, BIAcore T100 manufactured by GE Healthcare Bio Sciences was used. […] As an analyte, IL-17 (150 nM) and each aptamer (12.5 or 50 nM) shown by Table 3 were mixed, maintained for 15 min and after that the mixture was flown.
On to B6, for which the binding signal was 35.7 % IL-17/IL-17R binding remaining.
Same read-out and setting: under B7 stands 35.1 % IL-17/IL-17R binding remaining; under B8, 22.6 % IL-17/IL-17R binding remaining.
The same measure, in the same setting: with B9 the figure was 23.9 % IL-17/IL-17R binding remaining.
The same measure, in the same setting: under B10 stands 29.3 % IL-17/IL-17R binding remaining; under B11, 25.3 % IL-17/IL-17R binding remaining; under B12, 25.9 % IL-17/IL-17R binding remaining.
For B13, the binding signal was 35 % IL-17/IL-17R binding remaining.
Same read-out and setting: under B14 stands 21.6 % IL-17/IL-17R binding remaining; under B15, 35.1 % IL-17/IL-17R binding remaining; under B16, 30.6 % IL-17/IL-17R binding remaining.
As to B17, the binding signal is 26.1 % IL-17/IL-17R binding remaining.
On the same count and under the same terms, with B18 the figure was 31.9 % IL-17/IL-17R binding remaining.
Same read-out and setting: with B19 the figure was 33.5 % IL-17/IL-17R binding remaining; with B20, 32 % IL-17/IL-17R binding remaining.
